The values that follow come from a protein production outcome set (Wang et al. 2014).

This series can be described thus: label from the status in PepcDB records.
“MNELILLRQLAENQQYPSLLELAQSLWYDSGNPAVLPLLATANAHMGLKENTQALYQQSLKHFDVLDVDARCDLAVVLIVMQRIDDAIKMLSDILMEQGNHALALARLAYCYLASGRLAEAQHFFEKSLIITPERFIVHRNLVAVYIAQNELNQAQKQLDSATEVLVNYHKVGDPLYQQYWFQLNTTQLQLWVVQGLFCPAEEWLTQLSVRQQAGDYDEAVLVQYVKSYSQVLAEKNFHQQATNILREYLKQYNNNVELCMALAELAQVQGHFMQAISLLQKALKKDEGNSDLWVQLSTACLHRFDKKARKAAVRAVSLAEALEITDEQSLVLIKMKQAQANNALAEVECQEQNFEVSEKLYRDILAEHSHFLPALQGLGQQQMQQGNIDEAVALFERIKDIDLLKGCSALINVRRFPDDVEALDKMAIAANKPSMEGSLRAGILFQLAAAWEKKKDYNKAFRFAEQANNASKKFLSYNAQKHREDCARLRACFNKTLYQHRPNYGIESTIPVYVLGMPRSGTTLVEQILSGHSDIFGAGELGVIPQVIQGINRWERHTGSGRQYPDCIDDFNADTIAGIANNMLKELQELAAETKPESKYVVDKMPHNFENIGLIKFLFPNAKIISVRRDPRDIAMSNYFTDYQAKHGGMGFAYDLEHIGEQLADHNLLMHHWQQTFPDEILEINYEDVVDDIEGCARKMLSYIGVNWQPKVLKFNELVRTVKTASVWQVRQPIYKTSKGKWLRYQTRLTPLIKGTNAKIVSHPITDLLTLPEPGFLTDGVALYKEGKLDDAEMCFKKMLHHNPGHAACHYMIGLVYLTKNHAQDGIRHFEKAVASCPWQKEWRQNLLKAYEQEGETNKIAAFKKGNQRTTANDANNAVTYDEHFTSDAFTTKTTVSQ”: the protein production result is on record as “failed”.
Consider “MNENEQKAGSVADQKSKIRERYKGIDPDELDVIPALPQEDIFAVENEQRVAVYARVSTDDPRQTSSYELQKNHYHDVISKSPNWKLVQIYADEGISGTSLQHRDQFKLMIEDCKKGQIDLIVTKSVSRFARNVVDCIGYVRELLSLPHPVGVFFETERLNTFDPKSEMVLSFMATLAQEESHTKSEIMNASIEMRFRRGIFLTPILLGYDHDEDGNLIINEGEAKIVKLIFMMYLNGCTCQEIADTLTELGCETKKGNTVWSPGSILQILQNERHCGDVLAHKTYTPNYLNHKSKKNMQNRPQYRKRDHHEAIISRDDFIAVQRLISNAKYGNKGILPQLKVIPGGVLKGFVSINPRWAGFKETDYMNASSSVYDGTEQSGPSSGHVEVKSGEFDLRGYEIARSQFFDSTDRITVTFSQGDIRFSAPAVRKLDSTLVELLIHPKKLVFAVRNAGKDCRNAMQWSKKKDGKNSPREISGTAFLPTLYSLLGWNDDCRYRITGVKRGSGNDAVLLFNLSEPEIFIPNDMVGAPDADPAVKPFTDNQQRNVRAYPPDWADTFGSNYYSHAQAEELAGFTGRKDPDTSHAPVTYNDTDIQVTSKNDIEKNIKQIMSDMKENTDEHTDKR”, for which the protein production entry is listed as “failed”.
As to “MNEQPNNETLIQSSSRDLQIIEDDAFSYEGYQVVRGEFFAHTYEPSFTFNANKVSVNTACIKKLPKTDFVQILVNPDEKKLAVRPCQEDEKDSFRWCSATKKRSPRQITCRIFFAKVITLMGWNSSYRYKLLGKLIRSDNELLFVFDLTTPEIYVRTAKDDGKIKTSRTPTYPAEWQNQFGVPVEEHQSNLQINMFDGYAVFGISENTPPEEPKNPAEPQKEETHYEQSSLFTANPMH”, the protein production result is “failed”.
Turning to “MNEVKESLRSIEQKYKLFQQQQFTFIAALEHCRENAHDKIRPISSIEQVQSYMEHYCNNSTHRRILIMFMDICSELSKLCQHFEALHSGTPVTNSLLEKCKTLVSQSNDLSSLRAKYPHEVVNHLSCDEARNHYGGVVSLIPIVLDFMKEWIAHSEKLPRKVLQHGTT”, the protein production result is listed as “failed”.
“MNFEAIKSIYLFEMARTRRTLLQSVVSPVISTSLYFIVFGTAIGSRIQEVGGVSYGAFITPGLIMLTLLTQCISNGSFGIYFPKFTGTVYEILSAPVSMTEIVAGYVGAAATKGLMIGTIILITASFFVDITIAHPFMMVLFFVLTAVSFSLFGFIIGIWATNFEQLNLIPMLVVPPLTFLGGSFYSIDMLPPFWQTVSHFNPVLYLISGFRWSFYEIADVNPVISLAMITLFLAVCLGVVAWMFKTGYRLRN”: the protein production result was “failed”.
With “MNFLPPTPPPPDPVGWKLPRGSLARHLVLRLMPPLLLLVLLDLAATWVITHKIDMSIWMLEDFFWLMVVGQIVLIALFTGVIIRGVRSGLRSVNHLAEEIRQRSIDDMQPMEVAGLPAEIAPLVTHINDLLGRLDASLAAQRRFIGHAAHQLRTPLSGLRLESELMLARPLPEDVRMRAERIKAVSDRMIRLGQQLLVMARADPDARPQDRFIRLDLCEWVRASGAEWIPRVRAAQAEIDLVAPEQPVWIDGDPLLLDEMLGNLIDNALRYGKPRGRICLTIDVNPPALIIEDDGPGISPQERDSVFEAFYRAPDAKAGGSGLGLAIVREIAHAHGAWWKLSSRPEYAGTRLSVVFPGPRIGTQLTRQERAS”, the protein production entry is recorded as “failed”.
On to “MNFNWFLMLFLFNFSVLLGSDTTALGHYQRANEYYLSKRYYDAIDELVEAIKINPNYYEAYKFIASIYYSLKIYTQAQFFIEKASKMSNEDTEYKILYANILLKNDKIDQAKKIYSEVLVKQRNNIDALVGLASIFEKNGLFIAAANYYLSILDYSQNNYSAFEHLIDIYQRLGMHDKIRHLINKVRVNFLSFPDFHKRVAEFYISINNLGLAEKYALNYLALIESSYKDFGVVDAYRLLALVYLHEFKYEDAIEALQKAILVNKDSDELYYLLGYSYLRFGDIEKAILNLERAKNLKKDLEFYNIALEESFFASNFRNFLKNNSNARISKHYENEGLKAFKSLNLNKALFNAKNAVDIWPDNDSARFLLSKIYKLMNLDIMAYEQLFYLAKQRNSTDSRILDFYDVVSFDVRKSLFYKYGYKSIADFNKLYDDRVVYKMAIFTQSENKFFGANDLILRYAERVLERNLNMEIVNYNFDYNKNRDYLINNFSEGFSYSRNNNLDLFLIFDFKADILKNTATLVVNIFSGKTGIKLVSFSYDVGGVNYLSNALNSLSKDFHDYLPKKGKILQIKNDDALINLGQVNGVVKGDVFLILKEGALNSDTRDSGFIVYKKSDILGEILIEDISDYISRGIVKSSTFLKDYVQEGATVLIKR”, for which the protein production result is recorded as “failed”.
With “MNFPISTIRIGGWVVVAKNPDDIVAKFYFAKKKLIWEFLFGEPETNTLRLKRKIEIQWNDVSSFEESISSRDETGILKIELKKRPTFFIETNPQAGKHTQWKQLDHDFTGDHASNYRRHTLHFPPGVLQKNLEKLVTDSFWSKLYEVPFPVHESRYFDSGFENNSSRNSHSHTVGFNVNNGPQHHFSQGIGGVGVGEGNFSMANGGWQRNSYSPVNSLNYNTANEFFGMQATPPSSQVVNEHYNTQNDFTGSQFGYHMNQDEIQKILESQAYAVPDTQTKLMSSAMNNVPKYPQAGSCLESMLFWYEHRRRFQQ” the entry was “failed”; with “MNFPTQTHAIDFDTAELQRLGFRNRPDAVLPPPSLPELVYQLGRQLQTSLEAERILTLFFQGVQRFLPLSGLVYRHIESDLHLRLGEMSSDSASFHLRHEGKCIGELEFQGAKPFDTRQLSDLESLLVCLVYPLLNALLYRIATQTALRDPLTSTGNRIAMDQGLAREIEISSRHKQPLSLLMLDIDHFKKVNDEYGHHTGDDVLKTVAQSLKAQLRNIDRVFRYGGEEFVVILSNTGATAAELIGERLRQAVRNLEFRELDPALTMTVSLGCSTLLPTETADSLLRRADNALYVAKREGRNRLAMAS”, “failed”.
Then “MNFQRFKAIVKKEVIQLKRDRASFGIAIMMPIVMIFLFGYAVNTELSNISMTVLDQSNSIESRELIQSFQNTGYFKVVSRVKSIEEVREKMDKGKVHAAIVIPPDFSNKLQMREESNVQLLVDGSDPTTARTAFSSGVVSGQQYGMKKLQGFGEKTSSKFQEGGVNVNTRVLYNPNLRNQNFTIPGLIGLIMQNITILLTAFALVRERERGTIEQLTVSPLKAGEIILGKLVPYIFIGYIDFLFSLVLGIKWFNVPINGSIPLLLLLGFAFVICALAIGILISTISKTQLQAMQLTILVLLPSILLSGFVFPREAMPKVIQLIGNVLPLTYFLNILRGIITKGVGVQYLSRDIAAMCCLAVILLTLSIVRFRAKPYNS”, with “failed”; and “MNGASLCNSVLLHSHSLSRFQSSSSSCSVYLISSARTTSKYISISHRIRQSFREVIEKRSNGFCSFAVNKRRSGDSVIVESDDDDEEDDEDWGEFDGEDEGEEEEEDEGEFLPMDKMKKWLEKKPRGFGLGKKYETLIEDKLLDEIEQSWKAQAANLNKLKNDPLKSQQLKRDDNLLKGTGETQIGFRVRVTNLPKKKNVHRDLKVAFKEVSGVLSITPAVSGNKKTKDPVCKGFAHVDFKTEIDANRFVKQFTGQSLAFGKVIKQIKCQVVEFTSDDSVSKEVYLDNGFKVQKLPYSGLEGDSSADVVEEEVLLGSGEESDDSEEEVDEREVEDDERNHISSSIESSPIEMTRDSNTKLKFEKQVVKREIREHEELETPLVSFQVNKSEEAAAETHLDDEQSEEAVAETLLNDELDGDDEEEVAEDNLEPLNSSLSSSEENRVDRIRRLEQKLLGKEKLLGGGVGFDKPEAKPARVEGKKKEKKKKTKILVKGQAKKGTKIEIPGSSKR”, with “failed”.
In the case of “MNGMLLSRIKKKAMELAEDLKLVDFSFGLPYTWVLVEGIEGRALGVAMTLPEEVQRYTNSIEEPSLLEFIDKADSLNIIERTLGVAAINAVSQYYIDLREAKWIDVTELIQQDEIKRIAIIGNMPPVVRTLKEKYEVYVFERNMKLWDRDTYSDTLEYHILPEVDGIIASASCIVNGTLDMILDRAKKAKLIVITGPTGQLLPEFLKGTKVTHLASMKVTNIEKALVKLKLGSFKGFESESIKYVIEV”, the protein production result was “not failed”.
Then “MNGTALNWLELCRTVGPCLRPGGTALTDRALEVCNLSADSLIADVGCGAGGTLYHLEQIGFRRLVGLDPSETLLGDAAPRLETARLIRGEAATIPLRSATVDLLLCECVLSVLPGRSAPLREFARVVKDGGYLVVSDVFSTAGDEATGQAGGLLTRKELLAAVAGNGFTLLRWETHDRLLKEFAVRMILAGECLPDAWKGGTERKGEAARGGLGYFLMVARKAEDPLP”, with “failed”; and “MNHHHHNHHGEAGFKRKVDYLDRPERSEVLAPEEFLQRIPMEKTASILDLGAGTGFLTIPAAKKVENTVFALDLDTKMLELIETKAKTAELANVKTLEASMDDIPLETSSVDVVLASLVLHEADSLADVLREVSRVVKTGGYFASLEFDTKGTDLKGPPMEIQISAEKLKEELAGFGFEVVQNWELDEGMYVSIAEKKE”, with “failed”; and “MNHNYVEVKYPAIFRDEGTYWDVRFPDVPAAQTFGASVQVAADNAANALAIALFEQSLPPASDPQYWRLASTEFVVWITMADVQFGPGADTPEPMN”, with “not failed”.
Then “MNHSIPTLRTERLTLRPLAMADFPAYRDFMASPRSTGVGGPYDLPSTWGVFCHDLANWHFFGHGALMIDLGETGECIGQIGINHGPLFPEKELGWLLYEGHEGRGYAAEAAVALRDWAFETLNLPTLVSYVSPQNRKSAAVAERIGGTLDPLAPRSDPEDLVYRYHQVKTA”, with “not failed”; and “MNHTLQFPKAPEHLLQALNEVIPKCKLMAQQLPETAISLWLIPPVFPTERLDDDIIRRIWSDTPYWIFCWASGLAMAQWLLAEPHHVKDKVVLDFGAGSGVVAIAAKMAGAKRVICCDIDETSLNACRENALLNNVELEYLNDLYLSESVDILLAADVLYDQSNRFFLDEFLKFAPEVWVADSRVKNFSHPGYIKIDERSATTWPDLDEAKEFRNVSFYKTLEHHHHHH”, with “failed”.
Then “MNIAFTFKNFEPSEHLKKYARRRFEKLARFVGKSANLELQVALSLDKFRQKAEVQLVGDSINIAAVEQSEDMYATIDLVLDKLEAQLKKHVSRVKERRRSARTNANIDVFTYHTEGEGEDRAIVGTDQFVPKPLHVDEAAMQLDALDYEFLVFLNAESERINVIYRRRNGDFGLIDPVV”, with “failed”.
